# Measurements: patent US12099068B2, “Biomarkers for graft-versus-host disease” (Incyte Corporation, priority 2018, dated 2024)
# Tested on: plasma proteins
# Assay: Plasma proteins modulated between baseline and day 28 in responders (CR, VGPR, PR; n = 19), Example 6 (Table 13)
# Assay type: in vivo, human
# Details: plasma protein (OLINK NPX); responders (CR, VGPR, PR; n = 19); itacitinib 200 mg or 300 mg QD with corticosteroids; day 28 vs baseline
# Procedure, shortened: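 Longitudinal comparison, day 28 versus baseline, with steroid-naive (N=10) and steroid-refractory (N=18) patients combined. Proteins measured by OLINK proximity extension, log2 normalized protein expression. Differences tested by t tests, ANOVA, Pearson correlation, P<0.05 significant.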
Molecule,"Fold Change, Decreased Expression from Baseline to Day 28","Fold Change, Increased Expression from Baseline to Day 28"
"HCLS1 (protein, UniProt P14317 1-486, looked up) Hematopoietic lineage …: MWKSVVGHDVSVSVETQGDDWDTDPDFVNDISEKEQRWGAKTIEGSGRTEHINIHQLRNKVSEEHDVLRKKEMESGPKASHGYGGRFGVERDRMDKSAVGHEYVAEVEKHSSQTDAAKGFGGKYGVERDRADKSAVGFDYKGEVEKHTSQKDYSRGFGGRYGVEKDKWDKAALGYDYKGETEKHESQRDYAKGFGGQYGIQKDRVDKSAVGFNEMEAPTTAYKKTTPIEAASSGTRGLKAKFESMAEEKRKREEEEKAQQVARRQQERKAVTKRSPEAPQPVIAMEEPAVPAPLPKKISSEAWPPVGTPPSSESEPVRTSREHPVPLLPIRQTLPEDNEEPPALPPRTLEGLQVEEEPVYEAEPEPEPEPEPEPENDYEDVEEMDRHEQEDEPEGDYEEVLEPEDSSFSSALAGSSGCPAGAGAGAVALGISAVAVYDYQGEGSDELSFDPDDVITDIEMVDEGWWRGRCHGHFGLFPANYVKLLE",−1.455,
"SERPINA12 (protein, UniProt Q8IW75 21-414, looked up) Serpin A12: LKPSFSPRNYKALSEVQGWKQRMAAKELARQNMDLGFKLLKKLAFYNPGRNIFLSPLSISTAFSMLCLGAQDSTLDEIKQGFNFRKMPEKDLHEGFHYIIHELTQKTQDLKLSIGNTLFIDQRLQPQRKFLEDAKNFYSAETILTNFQNLEMAQKQINDFISQKTHGKINNLIENIDPGTVMLLANYIFFRARWKHEFDPNVTKEEDFFLEKNSSVKVPMMFRSGIYQVGYDDKLSCTILEIPYQKNITAIFILPDEGKLKHLEKGLQVDTFSRWKTLLSRRVVDVSVPRLHMTGTFDLKKTLSYIGVSKIFEEHGDLTKIAPHRSLKVGEAVHKAELKMDERGTEGAAGTGAQTLPMETPLVVKIDKPYLLLIYSEKIPSVLFLGKIVNPIGK",,1.567
"NINJ1 (protein, UniProt Q92982 1-152, looked up) Ninjurin-1: MDSGTEEYELNGGLPPGTPGSPDASPARWGWRHGPINVNHYASKKSAAESMLDIALLMANASQLKAVVEQGPSFAFYVPLVVLISISLVLQIGVGVLLIFLVKYDLNNPAKHAKLDFLNNLATGLVFIIVVVNIFITAFGVQKPLMDMAPQQ",,1.2723
"CD244 (protein, UniProt Q9BZW8 22-370, looked up) Natural killer cell receptor …: CQGSADHVVSISGVPLQLQPNSIQTKVDSIAWKKLLPSQNGFHHILKWENGSLPSNTSNDRFSFIVKNLSLLIKAAQQQDSGLYCLEVTSISGKVQTATFQVFVFESLLPDKVEKPRLQGQGKILDRGRCQVALSCLVSRDGNVSYAWYRGSKLIQTAGNLTYLDEEVDINGTHTYTCNVSNPVSWESHTLNLTQDCQNAHQEFRFWPFLVIIVILSALFLGTLACFCVWRRKRKEKQSETSPKEFLTIYEDVKDLKTRRNHEQEQTFPGGGSTIYSMIQSQSSAPTSQEPAYTLYSLIQPSRKSGSRKRNHSPSFNSTIYEVIGKSQPKAQNPARLSRKELENFDVYS",−1.5176,
"PRKRA (protein, UniProt O75569 1-313, looked up) Interferon-inducible …: MSQSRHRAEAPPLEREDSGTFSLGKMITAKPGKTPIQVLHEYGMKTKNIPVYECERSDVQIHVPTFTFRVTVGDITCTGEGTSKKLAKHRAAEAAINILKANASICFAVPDPLMPDPSKQPKNQLNPIGSLQELAIHHGWRLPEYTLSQEGGPAHKREYTTICRLESFMETGKGASKKQAKRNAAEKFLAKFSNISPENHISLTNVVGHSLGCTWHSLRNSPGEKINLLKRSLLSIPNTDYIQLLSEIAKEQGFNITYLDIDELSANGQYQCLAELSTSPITVCHGSGISCGNAQSDAAHNALQYLKIIAERK",−1.2761,
"KAZALD1 (protein, UniProt Q96I82 31-304, looked up) Kazal-type serine protease …: RPSPGPDYLRRGWMRLLAEGEGCAPCRPEECAAPRGCLAGRVRDACGCCWECANLEGQLCDLDPSAHFYGHCGEQLECRLDTGGDLSRGEVPEPLCACRSQSPLCGSDGHTYSQICRLQEAARARPDANLTVAHPGPCESGPQIVSHPYDTWNVTGQDVIFGCEVFAYPMASIEWRKDGLDIQLPGDDPHISVQFRGGPQRFEVTGWLQIQAVRPSDEGTYRCLGRNALGQVEAPASLTVLTPDQLNSTGIPQLRSLNLVPEEEAESEENDDYY",,1.2609
"THY 1 (protein, UniProt P04216 20-130, looked up) Thy-1 membrane glycoprotein: QKVTSLTACLVDQSLRLDCRHENTSSSPIQYEFSLTRETKKHVLFGTVGVPEHTYRSRTNFTSKYNMKVLYLSAFTSKDEGTYTCALHHSGHSPPISSQNVTVLRDKLVKC",−1.2913,
"CD48 (protein, UniProt P09326 27-220, looked up) CD48 antigen: QGHLVHMTVVSGSNVTLNISESLPENYKQLTWFYTFDQKIVEWDSRKSKYFESKFKGRVRLDPQSGALYISKVQKEDNSTYIMRVLKKTGNEQEWKIKLQVLDPVPKPVIKIEKIEDMDDNCYLKLSCVIPGESVNYTWYGDKRPFPKELQNSVLETTLMPHNYSRCYTCQVSNSVSSKNGTVCLSPPCTLARS",−1.6022,
"CD200R1 (protein, UniProt Q8TD46 25-348, looked up) Cell surface glycoprotein …: EGAAQPNNSLMLQTSKENHALASSSLCMDEKQITQNYSKVLAEVNTSWPVKMATNAVLCCPPIALRNLIIITWEIILRGQPSCTKAYKKETNETKETNCTDERITWVSRPDQNSDLQIRTVAITHDGYYRCIMVTPDGNFHRGYHLQVLVTPEVTLFQNRNRTAVCKAVAGKPAAHISWIPEGDCATKQEYWSNGTVTVKSTCHWEVHNVSTVTCHVSHLTGNKSLYIELLPVPGAKKSAKLYIPYIILTIIILTIVGFIWLLKVNGCRKYKLNKTESTPVVEEDEMQPYASYTEKNNPLYDTTNKVKASEALQSEVDTDLHTL",−1.4752,
"REN (protein, UniProt P00797 67-406, looked up) Renin: LTLGNTTSSVILTNYMDTQYYGEIGIGTPPQTFKVVFDTGSSNVWVPSSKCSRLYTACVYHKLFDASDSSSYKHNGTELTLRYSTGTVSGFLSQDIITVGGITVTQMFGEVTEMPALPFMLAEFDGVVGMGFIEQAIGRVTPIFDNIISQGVLKEDVFSFYYNRDSENSQSLGGQIVLGGSDPQHYEGNFHYINLIKTGVWQIQMKGVSVGSSTLLCEDGCLALVDTGASYISGSTSSIEKLMEALGAKKRLFDYVVKCNEGPTLPDISFHLGGKEYTLTSADYVFQESYSSKKLCTLAIHAMDIPPPTGPTWALGATFIRKFYTEFDRRNNRIGFALAR",,1.4074
"SERPINA9 (protein, UniProt Q86WD7 24-417, looked up) Serpin A9: ANAPSAYPRPSSTKSTPASQVYSLNTDFAFRLYRRLVLETPSQNIFFSPVSVSTSLAMLSLGAHSVTKTQILQGLGFNLTHTPESAIHQGFQHLVHSLTVPSKDLTLKMGSALFVKKELQLQANFLGNVKRLYEAEVFSTDFSNPSIAQARINSHVKKKTQGKVVDIIQGLDLLTAMVLVNHIFFKAKWEKPFHPEYTRKNFPFLVGEQVTVHVPMMHQKEQFAFGVDTELNCFVLQMDYKGDAVAFFVLPSKGKMRQLEQALSARTLRKWSHSLQKRWIEVFIPRFSISASYNLETILPKMGIQNVFDKNADFSGIAKRDSLQVSKATHKAVLDVSEEGTEATAATTTKFIVRSKDGPSYFTVSFNRTFLMMITNKATDGILFLGKVENPTKS",,1.5418
"LY9 (protein, UniProt Q9HBG7 48-655, looked up) T-lymphocyte surface antigen …: KDSAPTVVSGILGGSVTLPLNISVDTEIENVIWIGPKNALAFARPKENVTIMVKSYLGRLDITKWSYSLCISNLTLNDAGSYKAQINQRNFEVTTEEEFTLFVYEQLQEPQVTMKSVKVSENFSCNITLMCSVKGAEKSVLYSWTPREPHASESNGGSILTVSRTPCDPDLPYICTAQNPVSQRSSLPVHVGQFCTDPGASRGGTTGETVVGVLGEPVTLPLALPACRDTEKVVWLFNTSIISKEREEAATADPLIKSRDPYKNRVWVSSQDCSLKISQLKIEDAGPYHAYVCSEASSVTSMTHVTLLIYRRLRKPKITWSLRHSEDGICRISLTCSVEDGGNTVMYTWTPLQKEAVVSQGESHLNVSWRSSENHPNLTCTASNPVSRSSHQFLSENICSGPERNTKLWIGLFLMVCLLCVGIFSWCIWKRKGRCSVPAFCSSQAEAPADTPEPTAGHTLYSVLSQGYEKLDTPLRPARQQPTPTSDSSSDSNLTTEEDEDRPEVHKPISGRYEVFDQVTQEGAGHDPAPEGQADYDPVTPYVTEVESVVGENTMYAQVFNLQGKTPVSQKEESSATIYCSIRKPQVVPPPQQNDLEIPESPTYENFT",−1.4447,
"PODXL (protein, UniProt O00592 23-558, looked up) Podocalyxin: SPSPSPSPSQNATQTTTDSSNKTAPTPASSVTIMATDTAQQSTVPTSKANEILASVKATTLGVSSDSPGTTTLAQQVSGPVNTTVARGGGSGNPTTTIESPKSTKSADTTTVATSTATAKPNTTSSQNGAEDTTNSGGKSSHSVTTDLTSTKAEHLTTPHPTSPLSPRQPTSTHPVATPTSSGHDHLMKISSSSSTVAIPGYTFTSPGMTTTLLETVFHHVSQAGLELLTSGDLPTLASQSAGITASSVISQRTQQTSSQMPASSTAPSSQETVQPTSPATALRTPTLPETMSSSPTAASTTHRYPKTPSPTVAHESNWAKCEDLETQTQSEKQLVLNLTGNTLCAGGASDEKLISLICRAVKATFNPAQDKCGIRLASVPGSQTVVVKEITIHTKLPAKDVYERLKDKWDELKEAGVSDMKLGDQGPPEEAEDRFSMPLIITIVCMASFLLLVAALYGCCHQRLSQRKDQQRLTEELQTVENGYHDNPTLEVMETSSEMQEKKVVSLNGELGDSWIVPLDNLTKDDLDEEEDTHL",,1.2014
"STX8 (protein, UniProt Q9UNK0 1-236, looked up) Syntaxin-8: MAPDPWFSTYDSTCQIAQEIAEKIQQRNQYERKGEKAPKLTVTIRALLQNLKEKIALLKDLLLRAVSTHQITQLEGDRRQNLLDDLVTRERLLLASFKNEGAEPDLIRSSLMSEEAKRGAPNPWLFEEPEETRGLGFDEIRQQQQKIIQEQDAGLDALSSIISRQKQMGQEIGNELDEQNEIIDDLANLVENTDEKLRNETRRVNMVDRKSASCGMIMVILLLLVAIVVVAVWPTN",−1.4796,
"ITGB1BP2 (protein, UniProt Q9UKP3 1-347, looked up) Integrin beta-1-binding …: MSLLCRNKGCGQHFDPNTNLPDSCCHHPGVPIFHDALKGWSCCRKRTVDFSEFLNIKGCTMGPHCAEKLPEAPQPEGPATSSSLQEQKPLNVIPKSAETLRRERPKSELPLKLLPLNISQALEMALEQKELDQEPGAGLDSLIRTGSSCQNPGCDAVYQGPESDATPCTYHPGAPRFHEGMKSWSCCGIQTLDFGAFLAQPGCRVGRHDWGKQLPASCRHDWHQTDSLVVVTVYGQIPLPAFNWVKASQTELHVHIVFDGNRVFQAQMKLWGVINVEQSSVFLMPSRVEISLVKADPGSWAQLEHPDALAKKARAGVVLEMDEEESDDSDDDLSWTEEEEEEEAMGE",−1.8787,
